From US20240376208A1 (AFFIMED, published 2024)
Where two headings read alike, the source gives them in different places.

B1: Bi-scDb-Fc_02 (bispecific antibody, human IgG1)
chain: QVQLQESGPGLVKPSETLSLTCTVSGGSVSSGSYYWSWIRQPPGKGLEWIGYIYYSGSTNYNPSLKSRVTISVDTSKNQFSLKLSSVTAADTAVYYCARNPISIPAFDIWGQGTMVTVSSGGSGGSGGSGGSGGSGGSQPVLTQPPSVSVAPGKTARITCGGNNIGSKSVHWYQQKPGQAPVLVIYYDSDRPSGIPERFSGSNSGNTATLTISRVEAGDEADYYCQVWDTSSDHVLFGGGTKLTVLEPKSCDKTHTCPPCPAPEFEGGPSVFLFPPKPKDTLMISRTPEVTCVVVAVSHEDPEVKFNWYVDGVEVHNAKTKPREEQYNSTYRVVSVLTVLHQDWLNGKEYKCKVSNKALPAPIEKTISKAKGQPREPQVYTLPPSREEMTKNQVSLTCLVKGFYPSDIAVEWESNGQPENNYKTTPPVLDSDGSFFLYSKLTVDKSRWQQGNVFSCSVMHEALHNHYTQKSLSLSPGGGGGSGGGGSSYVLTQPSSVSVAPGQTATISCGGHNIGSKNVHWYQQRPGQSPVLVIYQDNKRPSGIPERFSGSNSGNTATLTISGTQAMDEADYYCQVWDNYSVLFGGGTKLTVLGGSGGSQVQLVQSGAEVKKPGESLKVSCKASGYTFTSYYMHWVRQAPGQGLEWMGAIEPMYGSTSYAQKFQGRVTMTRDTSTSTVYMELSSLRSEDTAVYYCARGSAYYYDFADYWGQGTLVTVSSGGSGGSGGSGGSGGSGGSSYVLTQPSSVSVAPGQTATISCGGHNIGSKNVHWYQQRPGQSPVLVIYQDNKRPSGIPERFSGSNSGNTATLTISGTQAMDEADYYCQVWDNYSVLFGGGTKLTVLGGSGGSQVQLVQSGAEVKKPGESLKVSCKASGYTFTSYYMHWVRQAPGQGLEWMGAIEPMYGSTSYAQKFQGRVTMTRDTSTSTVYMELSSLRSEDTAVYYCARGSAYYYDFADYWGQGTLVTVSS
notes: Anti-EGFR scFv - silenced Fc - anti-CD16A scDb; Four anti-CD16A and two anti-EGFR Fv domains
B2: aBi-scDb-Fc_05 (bispecific antibody)
chain 1: DKTHTCPPCPAPEFEGGPSVFLFPPKPKDTLMISRTPEVTCVVVAVSHEDPEVKFNWYVDGVEVHNAKTKPREEQYNSTYRVVSVLTVLHQDWLNGKEYKCKVSNKALPAPIEKTISKAKGQPREPQVYTLPPSREEMTKNQVSLTCLVKGFYPSDIAVEWESNGQPENNYKTTPPVLDSDGSFFLTSKLTVDKSRWQQGNVFSCSVMHEALHNHYTQKSLSLSPGGGGGSGGGGSSYVLTQPSSVSVAPGQTATISCGGHNIGSKNVHWYQQRPGQSPVLVIYQDNKRPSGIPERFSGSNSGNTATLTISGTQAMDEADYYCQVWDNYSVLFGGGTKLTVLGGSGGSQVQLVQSGAEVKKPGESLKVSCKASGYTFTSYYMHWVRQAPGQGLEWMGAIEPMYGSTSYAQKFQGRVTMTRDTSTSTVYMELSSLRSEDTAVYYCARGSAYYYDFADYWGQGTLVTVSSGGSGGSGGSGGSGGSGGSSYVLTQPSSVSVAPGQTATISCGGHNIGSKNVHWYQQRPGQSPVLVIYQDNKRPSGIPERFSGSNSGNTATLTISGTQAMDEADYYCQVWDNYSVLFGGGTKLTVLGGSGGSQVQLVQSGAEVKKPGESLKVSCKASGYTFTSYYMHWVRQAPGQGLEWMGAIEPMYGSTSYAQKFQGRVTMTRDTSTSTVYMELSSLRSEDTAVYYCARGSAYYYDFADYWGQGTLVTVSSAAAGSHHHHHH
chain 2: QVQLQESGPGLVKPSETLSLTCTVSGGSVSSGSYYWSWIRQPPGKGLEWIGYIYYSGSTNYNPSLKSRVTISVDTSKNQFSLKLSSVTAADTAVYYCARNPISIPAFDIWGQGTMVTVSSGGSGGSGGSGGSGGSGGSQPVLTQPPSVSVAPGKTARITCGGNNIGSKSVHWYQQKPGQAPVLVIYYDSDRPSGIPERFSGSNSGNTATLTISRVEAGDEADYYCQVWDTSSDHVLFGGGTKLTVLDKTHTCPPCPAPEFEGGPSVFLFPPKPKDTLMISRTPEVTCVVVAVSHEDPEVKFNWYVDGVEVHNAKTKPREEQYNSTYRVVSVLTVLHQDWLNGKEYKCKVSNKALPAPIEKTISKAKGQPREPQVYTLPPSREEMTKNQVSLYCLVKGFYPSDIAVEWESNGQPENNYKTTPPVLDSDGSFFLYSKLTVDKSRWQQGNVFSCSVMHEALHNHYTQKSLSLSPGGGGGSGGGGSSYVLTQPSSVSVAPGQTATISCGGHNIGSKNVHWYQQRPGQSPVLVIYQDNKRPSGIPERFSGSNSGNTATLTISGTQAMDEADYYCQVWDNYSVLFGGGTKLTVLGGSGGSQVQLVQSGAEVKKPGESLKVSCKASGYTFTSYYMHWVRQAPGQGLEWMGAIEPMYGSTSYAQKFQGRVTMTRDTSTSTVYMELSSLRSEDTAVYYCARGSAYYYDFADYWGQGTLVTVSSGGSGGSGGSGGSGGSGGSSYVLTQPSSVSVAPGQTATISCGGHNIGSKNVHWYQQRPGQSPVLVIYQDNKRPSGIPERFSGSNSGNTATLTISGTQAMDEADYYCQVWDNYSVLFGGGTKLTVLGGSGGSQVQLVQSGAEVKKPGESLKVSCKASGYTFTSYYMHWVRQAPGQGLEWMGAIEPMYGSTSYAQKFQGRVTMTRDTSTSTVYMELSSLRSEDTAVYYCARGSAYYYDFADYWGQGTLVTVSSGAAEPEA
notes: Asymmetric knob/hole Fc construct with four anti-CD16A Fv domains and only one anti-EGFR Fv domain; all other places print 158 and 159

Assays:
[1] = molecular target: T1, EGFR on tumor target cells (MCF-7, Daudi, DK-MG, HCT-116) (UniProt P00533 25-1210, limits assumed); assay: cell-based or functional assay
[2] = molecular target: T1, EGFR on tumor target cells (MCF-7, …); assay: cell-based or functional assay; remark: listed apart in the source
[3] = molecular target: CD16A on primary human NK cells (human, UniProt P08637 17-254); assay: cell-based or functional assay
[4] = molecular target: T1, EGFR on tumor target cells (MCF-7, …); assay: cell-based or functional assay; remark: listed apart in the source
[5] = molecular target: T2, biotinylated dimeric CD16A antigen (human, UniProt P08637 17-208, limits assumed, biotinylated (site not stated)); assay: ELISA, biotinylated dimeric CD16A titrated on coated construct
T2 construct: Soluble antigen; also called soluble CD16A antigen
Protocol: (§1) For the capturing approach, 96-well ELISA plates (Immuno Maxisorp, Nunc) were coated overnight at 4° C. with His-tagged human EGFR or BCMA extracellular domain at concentrations of 3.0 or 0.4 μg/mL, respectively. After blocking with 3% (w/v) skimmed milk powder dissolved in phosphate buffered saline (PBS), antigen coated plates were used for capturing of different multivalent bispecific engagers at concentrations of 3-5 μg/mL in PBS containing 0.3% (w/v) skimmed milk powder. After washing three times with 300 μL per well of PBS containing 0.1% (v/v) Tween 20, plates were incubated with serial dilutions of biotinylated dimeric or monomeric CD16A antigen in PBS containing 0.3% (w/v) skimmed milk powder for 1.5 h at room temperature. After washing, plates were incubated with the detection conjugate Streptavidin HRP, 1:10,000 diluted in PBS containing 0.3% (w/v) skimmed milk powder for 1 h followed by washing and incubation with tetramethylbenzidine substrate (Seramun) for 1-2 min. Reaction was stopped by addition of 0.5 M H₂SO₄ (100 μL/well). Absorbance was measured at 450 nm using a multiwell plate reader, plotted and EC₅₀ values were determined by fitting a nonlinear regression model to sigmoidal dose-response curves (four parameters logistic fit) using GraphPad Prism software.
(§2) Concentration dependent binding of antibody constructs to coated recombinant CD16A antigen, or of soluble monomeric or dimeric CD16 antigen variants to coated or target antigen captured antibody constructs was analyzed in ELISA. Half maximal binding concentrations (EC₅₀) were determined by fitting a nonlinear regression model to sigmoidal dose-response curves (four parameters logistic fit) using GraphPad Prism software.

[6] = molecular target: T3, biotinylated monomeric CD16A antigen (human, UniProt P08637 17-208, limits assumed, biotinylated (site not stated)); assay: ELISA, biotinylated monomeric CD16A titrated on coated construct
T3 construct: Soluble antigen; also called soluble CD16A antigen
Protocol: as §1, §2

[7] = molecular target: T4, recombinant CD16A 158F fused to monomeric human Fc (human, UniProt P08637 17-208); assay: ELISA, construct titrated on coated CD16A 158F fused to monomeric human Fc
T4 construct: also called recombinant CD16 antigen variant; not shown: monomeric human Fc
Protocol: To assess binding of EGFR/CD16 or BCMA/CD16 antibodies to coated antigen in ELISA, 96-well ELISA plates (Immuno Maxisorp, Nunc) were coated overnight at 4° C. with recombinant CD16 antigen variants fused to monomeric human Fc at a concentration of 1.5 μg/mL in 100 mM carbonate-bicarbonate buffer. After blocking with 3% (w/v) skimmed milk powder dissolved in phosphate buffered saline (PBS) serial dilutions of bispecific antibody constructs were incubated on the antigen coated plates for 1.5 h at room temperature. […] After washing, plates were incubated with tetramethylbenzidine substrate (Seramun) for 1-2 min. Reaction was stopped by addition of 0.5 M H₂SO₄ (100 μL/well). Absorbance was measured at 450 nm using a multiwell plate reader, plotted and EC₅₀ values were determined by fitting a nonlinear regression model to sigmoidal dose-response curves (four parameters logistic fit) using GraphPad Prism software.
as §2

[8] = molecular target: recombinant CD16A 158V fused to monomeric human Fc (human, UniProt P08637 17-208); assay: ELISA, construct titrated on coated CD16A 158V fused to monomeric human Fc
[9] = molecular target: T2, biotinylated dimeric CD16A antigen; assay: ELISA, biotinylated dimeric CD16A titrated on construct captured by coated His-tagged human EGFR extracellular domain
Protocol: as §1, §2

[10] = molecular target: T3, biotinylated monomeric CD16A antigen; assay: ELISA, biotinylated monomeric CD16A titrated on construct captured by coated His-tagged human EGFR extracellular domain
Protocol: as §1, §2

T2 sequence (P08637 17-208 limits assumed): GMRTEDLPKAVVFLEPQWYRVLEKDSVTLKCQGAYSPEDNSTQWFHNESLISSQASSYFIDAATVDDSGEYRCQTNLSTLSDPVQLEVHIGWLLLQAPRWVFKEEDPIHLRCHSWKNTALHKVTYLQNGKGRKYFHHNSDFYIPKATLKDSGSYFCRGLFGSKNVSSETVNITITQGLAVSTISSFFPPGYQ
T3 sequence (P08637 17-208 limits assumed): as above
T4 sequence (P08637 17-208): as the sequence (P08637 17-208 limits assumed) above
Chain of recombinant CD16A 158V fused to monomeric human Fc (P08637 17-208 F176V): as the sequence (P08637 17-208 limits assumed) above, with F160V counted along it
Chain of CD16A on primary human NK cells (P08637 17-254 limits assumed): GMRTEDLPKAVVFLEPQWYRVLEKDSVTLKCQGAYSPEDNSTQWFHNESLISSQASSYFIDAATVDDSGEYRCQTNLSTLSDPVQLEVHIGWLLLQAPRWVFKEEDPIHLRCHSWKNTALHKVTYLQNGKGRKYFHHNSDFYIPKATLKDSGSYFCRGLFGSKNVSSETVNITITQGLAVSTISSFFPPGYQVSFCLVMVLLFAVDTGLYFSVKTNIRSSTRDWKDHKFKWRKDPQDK

Row | Binder | EC50 [pM], 4 h calcein-release cytotoxicity on MCF-7 target cells, NK cells E:T 5:1 [1] [pM] | Emax [%], 4 h calcein-release cytotoxicity on MCF-7 target cells, NK cells E:T 5:1 [1] [%] | EC50 [pM], 4 h calcein-release cytotoxicity on Daudi target cells, NK cells E:T 5:1 [2] [pM] | Emax [%], 4 h calcein-release cytotoxicity on Daudi target cells, NK cells E:T 5:1 [2] [%] | Emax [%], 4 h calcein-release NK cell fratricide assay, E:T 1:1 [3] [%] | Emax [%], 4 h calcein-release cytotoxicity on Daudi target cells, NK cells E:T 5:1 [4] [%] | EC50 [5] [nM] | EC50 [6] [nM] | EC50 [7] [nM] | EC50 [8] [nM] | EC50 [9] [nM] | EC50 [10] [nM]
1 | B1 | 1.9 | 32.9 | 20.5 | 32.6 | 23 | 18.4 | 0.97 | 3.1 | 0.13 | 0.11 | 0.79 | 1.74
2 | B2 | 5 | 34.2 | 39.9 | 27.2 | 27.1 | – | 0.99 | 4.51 | 0.2 | 0.16 | 3 | 5.54
